{"source": "patent US20060210549", "key": {"[1]": {"system": "P1, H2N-GPQGIAGQR(GPO)4GG-OH"}, "[2]": {"system": "lipopeptide LP1, CH3(CH2)16COHN-GPQGIAGQR(GPO)4GG-OH"}}, "data": [{"substance": "recombinant form of human MMP-9, containing the catalytic and fibronectin domains of the enzyme", "values": [{"measurement": "cleavage of the peptide, products analyzed by RP-HPLC", "setting": "[1]", "result": "The peptide P1 (Rpn=0.04) was efficiently cleaved by the target enzyme MMP-9"}, {"measurement": "cleavage of the lipopeptide, products analyzed by RP-HPLC", "setting": "[2]", "result": "the lipopeptide LP1 (Rpn=0.11) was partially cleaved by MMP-9 (in 2 hours, FIG. 2A)"}, {"measurement": "release of encapsulated carboxyfluorescein from LP1/DSPC liposomes (fluorescence at 518 nm, five hours)", "setting": "[2]", "result": "In five hours, about 55% of the encapsulated dye was found to be released"}]}, {"substance": "trypsin", "values": [{"measurement": "cleavage of the peptide, products analyzed by RP-HPLC", "setting": "[1]", "result": "efficiently cleaved by the target enzyme MMP-9 as well as by a non-specific proteolytic enzyme, trypsin"}, {"measurement": "release of encapsulated carboxyfluorescein from LP1/DSPC liposomes (fluorescence at 518 nm)", "setting": "[2]", "result": "trypsin, once again failed to release the dye from the liposome"}]}]}
